Target: human GLP-1 receptor (human) (UniProt P43220)

Substance	GLP1cAMPma (3693) [EC50 (nM)] Mean Value [nM]
N-ε^27-(2-(2-(2-(2-(2-(2-(17-carboxyheptadecanoylamino-4(S)- carboxybutyrylamino])ethoxy)ethoxy)acetylamino)ethoxy)ethoxy) acetyl)[Leu^14,Arg^12,Lys^27]Exendin-4(1-39)amide (from UniProt P26349) (peptide)	0.52
N-ε^27-[2-(2-[2-(2-[2-(2-[4-hexadecanoylamino-4(S)- carboxybutyrylamino]ethoxy)ethoxy]acetylamino)ethoxy]ethoxy)acetyl] [Arg^12,Leu^14,Lys^27,Ala^29]Exendin-4-(1-39)-amide (from UniProt P26349) (peptide)	0.15
N-ε^27-[2-(2-[2-(2-[2-(2-[4-hexadecanoylamino-4(S)- carboxybutyrylamino]ethoxy)ethoxy]acetylamino)ethoxy]ethoxy)acetyl] [Arg^12,Leu^14,Lys^27]Exendin-4(1-39)amide (from UniProt P26349) (peptide)	0.007
N-ε^27-{2-(2-(2-(2-[2-(2-(4-(hexadecanoylamino)-4(S)- carboxybutyrylamino)ethoxy)ethoxy)acetylamino)ethoxy)ethoxy)acetyl} [Leu^14,28,Lys^27]Exendin-4(1-39)amide (from UniProt P26349) (peptide)	0.19
N-ε^27-{2-(2-(2-(2-[2-(2-(4-(hexadecanoylamino)-4(S)- carboxybutyrylamino)ethoxy)ethoxy]acetylamino)ethoxy)ethoxy) acetyl)}[Gln^12,Leu^14,28,Lys^27]Exendin-4(1-39)amide (from UniProt P26349) (peptide)	0.041
N-ε^28-(2-(2-(2-(2-(2-(2-(2-(2-(2- (Octadecanoylamino)ethoxy)ethoxy)acetylamino)ethoxy)ethoxy)acetyl- amino)ethoxy)ethoxy)acetyl))[Arg^12,Leu^14,Val^27,Lys^28 Exendin-4(1- 39)amide (from UniProt P26349) (peptide)	0.025
N-ε^28-(2-(2-(2-(2-(2-(2-(2-(2-(2- (Octadecanoylamino)ethoxy)ethoxy)acetylamino)ethoxy)ethoxy)acetyl- amino)ethoxy)ethoxy)acetyl))[Arg^12,Val^27,Lys^28]Exendin-4(1-39)amide (from UniProt P26349) (peptide)	0.041
N-ε^28-[2-(2-[2-(2-[2-(2-[4-hexadecanoylamino-4(S)- carboxybutyrylamino]ethoxy)ethoxy]acetylamino)ethoxy]ethoxy)acetyl] [alfa-Me-Phe^6,Arg^12,Val^27,Lys^28,Ala^29]Exendin-4-(1-39)-amide (from UniProt P26349) (peptide)	0.052
N-ε^28-{2-(2-(2-(2-[2-(2-(4-(hexadecanoylamino)-4- carboxybutyrylamino)ethoxy)ethoxy]acetylamino)ethoxy)ethoxy) acetyl)}-[Leu^14,Lys^20]Exendin-4-amide (from UniProt P26349) (peptide)	0.011
N-ε^32-(2-(2-(2-(2-(2-(2-(2-(2-(2- (Octadecanoylamino)ethoxy)ethoxy)acetylamino)ethoxy)ethoxy)acetyl- amino)ethoxy)ethoxy)acetyl))[Arg^12,Leu^14,Val^27,Arg^28,Lys^32]Exendin-4 (1-39)amide (from UniProt P26349) (peptide)	0.027
N-ε^32-(2-(2-(2-(2-(2-(2-(4-(Octadecanoylamino)-4(S)- carboxybutyrylamino))ethoxy)ethoxy)acetylamino)ethoxy) ethoxy)acetyl[Arg^12,Leu^14,Val^27,Arg^28,Lys^32]Exendin-4-(1-39)amide (from UniProt P26349) (peptide)	0.025
N-ε^32-[2-(2-[2-(2-[2-(2-[2-(2-[2- (Eicosanoylamino)ethoxy]ethoxy)acetylamino]ethoxy)ethoxy] acetylamino)ethoxy]ethoxy)acetyl][Arg^12,28,Leu^14,Val^27,Lys^32] Exendin-4-(1-39)amide (from UniProt P26349) (peptide)	0.27
N-ε^34-(2-(2-(2-(16-tetrazoylhexadecanoylamino-4(S)- carboxybutyrylamino)ethoxy)ethoxy(acetyl)[Leu^14,Arg^12,27, Lys^34]Exendin-4(1-39)amide (from UniProt P26349) (peptide)	0.61
N-ε^34-(2-(2-(2-(17-carboxyheptadecanoylamino)ethoxy)ethoxy)acetyl) [Leu^14,Arg^12,27,Lys^34]Exendin-4(1-39)amide (from UniProt P26349) (peptide)	0.44
N-ε^34-[2-(2-[2-(2-[2-(2-[4-hexadecanoylamino-4(S)- carboxybutyrylamino]ethoxy)ethoxy]acetylamino)ethoxy]ethoxy)acetyl] [Arg^12,27,Leu^14,Lys^34]Exendin-4(1-39)amide (from UniProt P26349) (peptide)	0.018
N-ε^34-[2-(2-[2-[4-hexadecanoylamino-4(S)- carboxybutyrylamino]ethoxy]ethoxy)acetyl][Arg^12,27,Leu^14,Lys^34] Exendin-4(1-39)amide (from UniProt P26349) (peptide)	0.012

— patent publication US9012398B2
